Test results published in article PMC10397247.

Legend:
4H_BCR = molecular target: T1, 4H_BCR; test: two-hybrid library CCmax; conditions: mean of both orientations;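 further: natural log of median RNA to DNA barcode read ratio; higher means stronger binding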
T1 chain: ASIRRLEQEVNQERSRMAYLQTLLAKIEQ

4H_APH = molecular target: T2, 4H_APH; test: two-hybrid library CCmax; conditions: mean of both orientations;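 further: natural log of median RNA to DNA barcode read ratio; higher means stronger binding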
T2 chain: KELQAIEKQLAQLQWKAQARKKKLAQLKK

4H406-AA = molecular target: T3, 4H406-AA; test: two-hybrid library CCmax; conditions: mean of both orientations;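 further: natural log of median RNA to DNA barcode read ratio; higher means stronger binding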
T3 chain: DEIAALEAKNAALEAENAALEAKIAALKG

4H452-AA = molecular target: T4, 4H452-AA; test: two-hybrid library CCmax; conditions: mean of both orientations;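 further: natural log of median RNA to DNA barcode read ratio; higher means stronger binding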
T4 chain: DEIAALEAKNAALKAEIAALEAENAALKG

4H3073-AA = molecular target: T5, 4H3073-AA; test: two-hybrid library CCmax
T5 chain: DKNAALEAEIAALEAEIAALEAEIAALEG

GCN2_T = test: two-hybrid library CCmax
4H_GCN4 = test: two-hybrid library CCmax; conditions: mean of both orientations
Chain of 4H_GCN4 (chain, as listed by the source): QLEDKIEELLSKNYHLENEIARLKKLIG

4H347-AA = molecular target: T6, 4H347-AA; test: two-hybrid library CCmax; conditions: mean of both orientations
T6 chain: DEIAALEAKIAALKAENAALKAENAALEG

4H3438-AA = molecular target: T7, 4H3438-AA; test: two-hybrid library CCmax; conditions: mean of both orientations
T7 chain: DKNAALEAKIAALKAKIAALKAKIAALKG

4H56-AA = molecular target: T8, 4H56-AA; test: two-hybrid library CCmax; conditions: mean of both orientations
T8 chain: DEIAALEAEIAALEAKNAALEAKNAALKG

APC7524-AA = molecular target: T9, APC7524-AA; test: two-hybrid library CCmax; conditions: mean of both orientations
T9 chain: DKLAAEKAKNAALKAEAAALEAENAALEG

APC9141-AA = molecular target: T10, APC9141-AA; test: two-hybrid library CCmax; conditions: mean of both orientations
T10 chain: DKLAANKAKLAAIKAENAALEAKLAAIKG

APC9806-AA = molecular target: T11, APC9806-AA; test: two-hybrid library CCmax; conditions: mean of both orientations
T11 chain: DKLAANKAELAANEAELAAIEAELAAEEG

APC9291-AA = molecular target: T12, APC9291-AA; test: two-hybrid library CCmax; conditions: mean of both orientations
T12 chain: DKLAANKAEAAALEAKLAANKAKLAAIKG

APC8516-AA = molecular target: T13, APC8516-AA; test: two-hybrid library CCmax; conditions: mean of both orientations
T13 chain: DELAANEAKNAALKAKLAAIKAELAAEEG

APC6088-AA = molecular target: T14, APC6088-AA; test: two-hybrid library CCmax; conditions: mean of both orientations
T14 chain: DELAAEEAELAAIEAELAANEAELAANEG

APC5531-AA = molecular target: T15, APC5531-AA; test: two-hybrid library CCmax
T15 chain: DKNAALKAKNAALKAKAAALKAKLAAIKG

APC8401-AA = molecular target: T16, APC8401-AA; test: two-hybrid library CCmax; conditions: mean of both orientations
T16 chain: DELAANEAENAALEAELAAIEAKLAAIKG

APC9182-AA = molecular target: T17, APC9182-AA; test: two-hybrid library CCmax; conditions: mean of both orientations
T17 chain: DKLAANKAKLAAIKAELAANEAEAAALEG

APC9096-AA = molecular target: T18, APC9096-AA; test: two-hybrid library CCmax; conditions: mean of both orientations
T18 chain: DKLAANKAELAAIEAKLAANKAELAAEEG

APC6108-AA = molecular target: T19, APC6108-AA; test: two-hybrid library CCmax
T19 chain: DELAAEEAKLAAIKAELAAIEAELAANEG

APC7099-AA = molecular target: T20, APC7099-AA; test: two-hybrid library CCmax; conditions: mean of both orientations
T20 chain: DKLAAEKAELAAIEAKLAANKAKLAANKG

APC8910-AA = molecular target: T21, APC8910-AA; test: two-hybrid library CCmax; conditions: mean of both orientations
T21 chain: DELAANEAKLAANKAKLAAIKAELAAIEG

APC9319-AA = molecular target: T22, APC9319-AA; test: two-hybrid library CCmax; conditions: mean of both orientations
T22 chain: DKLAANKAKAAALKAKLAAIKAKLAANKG

APC8191-AA = molecular target: T23, APC8191-AA; test: two-hybrid library CCmax; conditions: mean of both orientations
T23 chain: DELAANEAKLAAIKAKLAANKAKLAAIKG

4H968-bH = molecular target: T24, 4H968-bH; test: two-hybrid library CCNG1
T24 chain: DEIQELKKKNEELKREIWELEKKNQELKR

4H918-bH = molecular target: T25, 4H918-bH; test: two-hybrid library CCNG1
T25 chain: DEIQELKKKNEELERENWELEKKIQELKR

4H855-bH = molecular target: T26, 4H855-bH; test: two-hybrid library CCNG1
T26 chain: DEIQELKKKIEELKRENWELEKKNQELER

4H797-bH = molecular target: T27, 4H797-bH; test: two-hybrid library CCNG1
T27 chain: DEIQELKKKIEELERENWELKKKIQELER

4H953-bH = molecular target: T28, 4H953-bH; test: two-hybrid library CCNG1
T28 chain: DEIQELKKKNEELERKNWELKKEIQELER

4H780-bH = molecular target: T29, 4H780-bH; test: two-hybrid library CCNG1
T29 chain: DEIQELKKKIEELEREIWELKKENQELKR

4H741-bH = molecular target: T30, 4H741-bH; test: two-hybrid library CCNG1
T30 chain: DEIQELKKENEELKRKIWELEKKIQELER

4H730-bA = molecular target: T31, 4H730-bA; test: two-hybrid library CCNG1
T31 chain: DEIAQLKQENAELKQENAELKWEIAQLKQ

4H949-bA = molecular target: T32, 4H949-bA; test: two-hybrid library CCNG1
T32 chain: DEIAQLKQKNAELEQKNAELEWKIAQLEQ

4H796-bA = molecular target: T33, 4H796-bA; test: two-hybrid library CCNG1
T33 chain: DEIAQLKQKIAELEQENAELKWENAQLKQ

4H932-bA = molecular target: T34, 4H932-bA; test: two-hybrid library CCNG1
T34 chain: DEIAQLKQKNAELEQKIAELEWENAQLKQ

DKNAALEAEIAALEAEIAALEAEIAALEG [4H3073-AA]
interaction score (4H_BCR): -1.37 | interaction score (4H_APH): 0.197 | interaction score (4H406-AA): -1.6 | interaction score (4H452-AA): -1.22 | interaction score (4H3073-AA): -0.701 | interaction score (GCN2_T): -1.05 | interaction score (4H_GCN4): -0.626 | interaction score (4H347-AA): -1.33 | interaction score (4H3438-AA): 1.51 | interaction score (4H56-AA): -1.28

DKNAALKAKNAALKAKAAALKAKLAAIKG [APC5531-AA]
interaction score (APC7524-AA): -1.84 | interaction score (APC9141-AA): -1.97 | interaction score (APC9806-AA): -1.95 | interaction score (APC9291-AA): -1.72 | interaction score (APC8516-AA): -1.6 | interaction score (APC6088-AA): -1.44 | interaction score (APC5531-AA): -1.63 | interaction score (APC8401-AA): -1.77 | interaction score (APC9182-AA): -1.96

DELAAEEAKLAAIKAELAAIEAELAANEG [APC6108-AA]
interaction score (APC9096-AA): -1.73 | interaction score (APC6108-AA): -1.61 | interaction score (APC7099-AA): -1.52 | interaction score (APC8910-AA): -2.2 | interaction score (APC9319-AA): -1.1 | interaction score (APC8191-AA): -1.6

DEIQELKKKIEELEREIWELKKENQELKR [4H780-bH]
interaction score (4H968-bH): -0.28 | interaction score (4H918-bH): 0.556 | interaction score (4H855-bH): 0.0924 | interaction score (4H797-bH): -0.654 | interaction score (4H953-bH): -0.153 | interaction score (4H780-bH): 1.6

DEIQELKKENEELKRKIWELEKKIQELER [4H741-bH]
interaction score (4H741-bH): 1.26

DEIAQLKQENAELKQENAELKWEIAQLKQ [4H730-bA]
interaction score (4H730-bA): 1.25 | interaction score (4H949-bA): -0.437 | interaction score (4H796-bA): -0.666 | interaction score (4H932-bA): -0.52
